Each block holds one molecule with its values, some of them ahead of it.
Key:
Assay type in all cases: biochemical
[1] = Pilot capillary electrophoresis desulfation assay with monosulfated 4-MU gluco- and galactopyranosides
Protocol: Initial assessment of substrate specificity and pH optima was made using a capillary electrophoresis-based assay for the detection of desulfated products. Preliminary enzyme activity was measured against the following series of fluorescently derivatized, monosulfated gluco and galactopyranosides: 4-MU-GlcNAc,6S, 4-MU-GlcNS, 4-MU-GalNAc,6S and 4-MU-Gal6S. Standard reactions included 1 mM substrate, 1-10 μM enzyme, 50 mM sodium acetate, pH 5.5-6.5 and 5 mM CaCl2 in a 20 μL reaction volume. For pilot experiments, exhaustive reactions involved overnight incubations at 30° C. Enzyme was inactivated by heat denaturation at 95° C. for 10 minutes, followed by a 10-fold dilution into water. Reaction products were resolved by capillary electrophoresis using a 25 cm long, 75 μm (i.d.) fused silica capillary (Agilent Technologies, Palo Alto, Calif.). Electrophoresis was carried out under negative polarity by applying a voltage of −15 kV (˜1.2 W) for 10 minutes. Substrate desulfation was measured as a percentage of substrate depletion relative to a minus enzyme control as monitored by the loss of UV absorbance at 315 nm detected at approximately 4 minutes. A standard capillary electrophoresis buffer included 50 mM Tris and 10 μM dextran sulfate (average MW of 10,000 Da) adjusted to pH 2.0 with phosphoric acid. At this pH, saccharide migration occurred on the basis of charge without the influence of electro-osmotic flow.

[2] = ESI mass spectrometry of desulfation of non-derivatized sulfated glucosamine monosaccharides
Protocol: Electrospray ionization mass spectrometry was performed in the negative ion mode using an Agilent 1100 Series VL LC/MSD Trap. For simplicity, the samples were prepared by adding MeOH directly to the enzymatic reaction mixtures without purification and were directly injected into the source of the mass spectrometer using a syringe pump at a rate of ˜8 μl/min, The SPS function of the software (LC/MSD Trap Software 4.1 Build 143, MSD Trap Control Version 5.0 Build 65) was used to tune the instrument with the target mass set to the mass of the substrate, the sample stability set to 50% and the drive level set to 100%. Data were acquired over the scan range of 100-2200 m/z by accumulating 30,000 ions per scan. Capillary voltage was set to 3000 V. Nitrogen was used as the drying gas while helium was used as the nebulizing gas, with flow rates of 5 and 15 liters/min, respectively. In each case a minimum of ten spectra were averaged.
For the experiments determining the order of action of the enzymes, reactions were carried out with 100 μM substrate, 2 mM CaCl2, 5 μM enzyme and various buffers at 37° C. overnight. Samples were diluted 1:10 in MeOH prior to analysis in the ESI, and the carrier solvent was H2O:MeOH (1:10, v/v). For the time course experiments showing desulfation of different unlabeled monosaccharides, reactions were carried out with 2.5 mM substrate, 5 mM CaCl2, 1 μM enzyme and 50 mM acetate buffer at pH 5.5 for the 6-O-sulfatase and pH 6.0 for the N-sulfamidase at 37° C. Reactions were quenched by diluting the samples 1:4 in MeOH. The carrier solvent was H2O:MeOH (1:4, v/v). In these experiments, 4-MU-GlcNS was added prior to injection as an internal standard to monitor ionization efficiency and mass accuracy within the source and trap.

[3] = Fluorimetric arylsulfatase assay using 4-MUS
Protocol: Arylsulfatase activity was measured independently using two chromogenic substrates, 4-catechol-sulfate and 4-methylumbelliferyl-sulfate (4-MUS). The catechol substrate assay was conducted generally as described (Beil et al., 1995 Eur J Biochem 229, 385-394). Briefly, 10 mM substrate were incubated with ˜30 μM recombinant enzyme overnight (12-15 hours) at 37° C. in a 100 μL reaction which included 50 mM MES pH 7.0 and +2 mM CaCl2. Reactions were quenched by the addition of 5 μL 5M NaOH and colorimetric activity determined spectroscopically at 515 nm. Fluorimetric arylsulfatase assay using 4-MUS was as described (Morimoto-Tomita et al., 2002 J Biol Chem 277, 49175-85) with some modifications. Reaction conditions included 10 μM enzyme, 2 mM 4-MUS, 50 mM sodium acetate, pH 6.0, and 5 mM CaCl2 in a 20 μL reaction volume. The enzyme incubation temperature was 30° C. Activity was measured as a function of time ranging from 3 to 24 hours; the reactions were quenched by the addition of 200 μL 0.5 M Na2CO3, pH 10.7. Detection of fluorescent methylumbelliferone was measured at this alkaline pH using a SpectraMax microtiter plate reader ([…], Sunnyvale, Calif.) set at excitation and emission wavelengths of 360 and 440 nm, respectively. Fluorescence intensity was corrected against background (minus enzyme control). In both assays, 0.5 unit of arylsulfatase from Aerobacter aerogenes (Sigma, St. Louis, Mo.) was used as a positive control.

[4] = Compositional analyses of sulfatase treated heparin; conditions: 8 hours preincubation, then heparinase I and III
Protocol: 20 μg heparin were preincubated with 10 μM 6-O-sulfatase or N-sulfamidase for 8 hours at 30° C. in a 20 μL reaction which included 25 mM sodium acetate, pH 7.0 and 2 mM calcium acetate, pH 7.0. Following this preincubation, enzymes were inactivated by heat denaturation at 95° C. for 10 minutes and heparin exhaustively digested overnight at 37° C. by the addition of 2 μL of a concentrated enzyme cocktail containing heparinase I and III. Subsequent CE-based compositional analyses of heparinase-derived disaccharides were completed as described (Venkataraman et al., 1999 Science 286, 537-542).

[5] = Sequential degradation of heparin oligosaccharide by exo-enzymes, MALDI-MS; conditions: after 2-O-sulfatase and Δ4,5 glycuronidase
Protocol: The purified pentasulfated tetrasaccharide ΔU2SHNS,6SIHNS,6S was provided by Dr. I. Capila (Momenta Pharmaceuticals, Cambridge, Mass.). Enzyme sequence was as follows: 2-O-sulfatase→Δ4,5 glycuronidase→6-O-sulfatase→N-sulfamidase. After each step, the enzyme was heat inactivated and 20 μL aliquots removed prior to the addition of the next enzyme in the sequence. Initial reaction conditions included 20 mM Tris, pH 7.2 and 60 nanomoles of tetrasaccharide in a 120 μL reaction volume. All enzyme reactions were carried out at 30° C. Enzyme specific conditions included the following: 1) 2-O-sulfatase, 1 μM enzyme, 6 hours; 2) Δ4,5 glycuronidase, 1 μM enzyme, 6 hours; 3) 6-O-sulfatase, 5 μM enzyme, 5 mM CaCl2, 12-15 hours; 4) N-sulfamidase, same conditions as for 6-O-sulfatase. Molecular masses of enzyme products were determined by MALDI mass spectrometry using established methods (Rhomberg et al., 1998, Proc Natl Acad Sci USA 95, 12232-12237).

- hydrolysis of 4-MU sulfate [3]: partly hydrolyze
- rate of 4-MU sulfate hydrolysis relative to the ORF C protein [3]: at least 3 fold
- effect of sulfatase pretreatment of unfractionated heparin on heparinase-derived cleavage products [4]: no effect on the compositional profile
B1: Flavobacterium heparinum 6-O-sulfatase (ORF B), recombinant, NH2-terminal truncation lacking signal sequence, SEQ ID NO: 2 (Pedobacter heparinus DSM 2366) (protein)
chain: TLMSCQQPKPAESAKRPNIVFIMTDDHTIQAISAYGSKLVKTPNLDRIANEGMLFNNCFVTNAVCGPSRATILTGKYSHLNGLTDNSKVFDSTQVIYPQLLKKAGYQTAMIGKWHLGSTPMGFDYYSILPNQGQYYQPEFIENGHLVKEKGYVTDLITDKAIGFLEKRDHDKPFLMIYQHKAPHRNWLPAPRHLGMFDDTVFPEPANLLDDFKGRGRAAKEQLMNISTDMWPAWDLKMLSTAQLDSMAKLPVSPKFKDAKGDDYQQANDPSLDKARFFEVYNRMTDAEKVQWRKVYDKRVAEFKRLNPKGADLVRWKYQQYMRDYLACVVSVDENVGRLMDYLKKIGELDNTIIVYTSDQGFYLGEHGYFDKRFMYDESFRTPLMVRYPPSVKAGSVSNAFAMNLDFAPTLLDYAGVKIPADMQGLSLRPVLDNAGKSPENWRKAVYYHYYEFPSWHMVKRHYGIRTERYKLIHFYNDIDEWELYDMQKDPHEMQNLYNDKAYEPIIKDLKVQMKKLQVQYKDTNPTEAL
notes: E. coli BL21(DE3), N-terminal 6xHis removed by thrombin
- substrate specificity among four monosulfated 4-MU substrates [1]: specific for the 6-O-sulfated glucosamine
- activity on the two 6-O-sulfated galactose sugars ([1]; 4-MU-Gal6S and 4-MU-GalNAc,6S): did not act upon
- effect of the presence of a 3-O-sulfate [2]: completely inhibited
- requirement at the 2-amino position of glucosamine [2]: required a substituted amine (acetate or sulfate) at the 2-amino position
- comparative kinetic analysis GlcNAc,6S vs. GlcNS,6S ([2]; time course): only a modest preference of the enzyme for the monosulfated substrate
- desulfation of the trisaccharides at the non-reducing end [5]: able to singularly desulfate both trisaccharides

- hydrolysis of 4-MU sulfate [3]: only negligible activity
- effect of sulfatase pretreatment of unfractionated heparin on heparinase-derived cleavage products [4]: no effect on the compositional profile
- desulfation of the trisaccharides at the non-reducing end [5]: not able to do so
B2: Flavobacterium heparinum N-sulfamidase (ORF C), recombinant, NH2-terminal truncation lacking signal sequence, SEQ ID NO: 4 (Pedobacter heparinus DSM 2366) (protein)
chain: SCTSPEKKTDRPNILMIMSDNQSWNHVGSYGDQTVRTPNMDRIAKEGVRFTNAFCSSPSCTPARAGMLTGQDIWRLEDGGNLWGVLPVKYKVYPDLLEEAGYAIGFQGKGWGPGSFEANKRPRNPAGNEFKSFGAFLKDKKEGPWCYWISSHEPHRPYVEGSGEKAGIDPNKVKVPAYLPDHISIRKDIADYYAAVETFDRELGEALDQLKASGELDNTVIVVCSDNGWQMPRGLANLYDFGTHVPLIISWPGKFKQDVVADNLVTLNDLAPTFLQLGKVPVPADMTGKSLLPIVEAGKKDEKPRDYVVLGRERHAFVRRHGLGYPGRAIRTKDYLYIKNYEPNRWPAGDPPFYGDIDPYMFNWPGETKYYLIEHKDDPKVKSFFELGMGKRPAEELFDINKDPDELHNLAALPEYQKIKQELVAKLRNYLVATKDPRETNGNIQIWDTAAYFSEIDKTPKPSKEMQKRFKLDSSYNYLK
notes: as for B1
- substrate specificity among four monosulfated 4-MU substrates [1]: could only hydrolyze the glucosamine sulfated at the 2-amino position
- effect of the presence of a 3-O-sulfate [2]: completely inhibited
- activity at the 2-amino position when a second sulfate at the 6-O position is present ([2]; substrate HNS,6S): absolutely abolished

— patent US8846363B2, “Compositions of and methods of using sulfatases from Flavobacterium heparinum” (priority 2007, dated 2014)
